Consider 5 molecules from paper PMC9966725, “Preclinical Evaluation of a Lead Specific Chelator (PSC) Conjugated to Radiopeptides for ^203Pb and ^212Pb-Based Theranostics” (Pharmaceutics, 2023).

SMILES strings stand for the structures.

A short description of one series: in vivo. Also noted: species or system mice. The following applies: female, athymic nude, mouse, total radioactivity; for tissue uptake at 1 h: iv, 74 kBq. As for the experimental part:
(§1) Biodistribution of [^212Pb]Pb-PSC-PEG-T and progeny ^212Bi^3+ was determined in two animal models, including female naïve CD-1Elite mice and athymic mice bearing AR42J tumor xenografts. SSTR2-positve AR42J cells were cultured in 10% Minimum Essential Medium (MEM) supplemented with 10% fetal bovine serum (FBS), 100 units mL^−1 penicillin, and 100 units mL^−1 streptomycin 37 °C in a humidified atmosphere (5% CO2). All animal studies were performed in accordance with the Guide for the Care and Use of Laboratory Animals, according to protocols approved by the University of Iowa Animal Care and Use Committee (protocol#1122453 approved on 16 February 2022). Xenograft of AR42J tumor was developed by subcutaneous (s.c.) injection of 1 × 10^6 cells at the left shoulder of female athymic nude mice. [^212Pb]Pb-PSC-PEG-T was radiolabeled and purified as described above, and kept at room temperature away from light for 3 h before injection, to allow progeny ^212Bi to approach equilibrium before injection. Upon assay, 74 kBq [^212Pb]Pb-PSC-PEG-T (peptide mass = 5–10 pmole) were injected via tail vein (n = 2–3). Animals were euthanized at designated time points (1, 5, 24 h for naïve CD-1 mice; 1, 4 h for AR42J-bearing mice). Organs of interest and tumors were collected, rinsed, and weighed. Radioactivity of ^212Pb and ^212Bi in each sample was measured on an automated gamma counter by 238 keV and 583 keV gamma peaks, respectively. ^212Bi was purified from the generator eluate on RE2 resin and collected in pH = 6 sodium acetate as described above. Biodistribution of free ^212Bi in normal organs was determined at 2 h post injection of 74 kBq ^212Bi in naïve female CD-1 Elite mice (n = 3). Radioactivity in samples was decay corrected and data were expressed as percent injected dose per gram of tissue (%ID/g). SPECT imaging of [^203Pb]Pb-PSC-PEG-T and [^212Pb]Pb-PSC-PEG-T in female athymic nude mice bearing AR42J xenograft (n = 2) was conducted on Bioemtech Gamma-Eye Imaging system (Bioemtech, Athens, Greece) with 30–500 keV dynamic range and 1.9 mm spatial resolution. Whole body 2D-SPECT imaging of [^203Pb]Pb-PSC-PEG-T and [^212Pb]Pb-PSC-PEG-T were collected at 3 h and 24 h (n = 2) post injection of 1.8 MBq [^203Pb]Pb-PSC-PEG-T (52 MBq nmole^−1) and 3.7 MBq [^212Pb]Pb-PSC-PEG-T (20 MBq nmole^−1). SPECT images were generated by acquiring ten 30 s projections. Imaging data were reconstructed and normalized to percent of injected dose (%ID) in tumor and kidneys based on region of interest (ROI) analysis on VISUAL-Eyes software (Bioemtech, Athens, Greece). Animals were euthanized after conclusion of the study at 24 h post injection. Tumor xenografts and organs of interest were collected and weighed. Radioactivity of ^203Pb or ^212Pb was determined on automated gamma counter and normalized to %ID/g.

Series [1] is described as follows: Radiochemical stability of radiometal complex in saline, radio-iTLC. Format: physicochemical. The following applies: for radiochemical purity of progeny: progeny of 37 MBq mL^-1 [^212Pb]Pb-PSC-PEG-T, 24 h in saline at room temperature; for radiochemical purity: single species, 7.4 MBq mL^-1, n = 2. As for the experimental part: (§2) Using [^203Pb]Pb-PSC-PEG-T surrogate, radiochemical stability of [^203Pb]Pb-PSC-PEG-T in saline was monitored for 72 h. Similarly, single species of [^212Bi]Bi-PSC-PEG-T in saline were also monitored for 5 h (five half-lives of ^212Bi). [^203Pb]Pb-PSC-PEG-T and [^212Bi]Bi-PSC-PEG-T were radiolabeled and purified on Sep-Pak® C18 SPE columns as previously described. Next, 7.4 MBq mL^−1 of purified [^203Pb]Pb-PSC-PEG-T and [^212Bi]Bi-PSC-PEG-T were stored in saline supplemented with 5% EtOH and 1 mg mL^−1 sodium ascorbate for 72 h and 5 h, respectively, followed by analysis of radiochemical purity by radio-iTLC method. Then, radiochemical stability of [^212Pb]Pb-PSC-PEG-T and progeny [^212Bi]Bi-PSC-PEG-T were determined by radio-iTLC after storage of 37 MBq mL^−1 radiolabeled [^212Pb]Pb-PSC-PEG-T in saline for 24 h, and further confirmed by radio-HPLC analysis. In human serum, radiochemical stability of [^212Pb]Pb-PSC-PEG-T and progeny [^212Bi]Bi-PSC-PEG-T were determined after incubation of 3.7 MBq [^212Pb]Pb-PSC-PEG-T in 1 mL human serum at 37 °C for 24 h. In addition, metabolic stability of Pb-PSC-PEG-T radiopeptide in serum was determined by radio-HPLC after incubating [^203Pb]Pb-PSC-PEG-T surrogate in human serum for 55 h (five half-lives of ^212Pb). Following the incubation, serum protein was precipitated in ice-cold methanol (1:1.5 v/v) for 10 min, followed by centrifugation at 10,000× g for 10 min. The supernatant was collected and analyzed on radio-HPLC.
In radio-iTLC analysis, 0.1 M NaOAc with 1 mM DTPA was used as mobile phase for ^203Pb, ^212Pb, ^212Bi. Citric acid (0.1 M) was used as mobile phase for ^68Ga. Upon radio-iTLC analysis, 2 µL aliquot sample was spotted on the radio-iTLC strips (2 × 10 cm) and developed in the mobile phase. Radioactivity of ^203Pb and ^212Pb was measured on NaI(Tl) gamma spectroscope using 279 keV and 238 keV gamma peaks, respectively. Radioactivity of ^212Bi on radio-iTLC was measured on the Ludlum Model 3030 α-particle counter. Radio-HPLC analysis was conducted on Agilent 1260 (Agilent, Santa Clara, CA, USA). Binary mobile phases were applied to run 5–60% phase B (acetonitrile) over phase A (0.1% TFA in water) over 10 min on ZORBAX RR Eclipse XDB-C18 column (4.6 × 150 mm, 5 µm). Radioactivity of ^203Pb was measured on flow-through 105S-1 single channel radiation detector (Corroll & Ramsey, Fort Collins, CO, USA). To measure ^212Pb and ^212Bi activity on radio-HPLC, eluate was collected every 10 s on a HPLC fraction collector. Radioactivity of ^212Pb and ^212Bi in each collected eluate was measured on Cobra II automated gamma counter using 238 keV and 583 keV gamma peaks immediately after collection.

In series [2] the test system is SSTR2-positive AR42J xenografts. Description: in vivo. More on the design: species or system mice. As to conditions: female, athymic nude, mouse, iv, 74 kBq, 1 h. As for the experimental part: as §1
The nature of series [3]: In vivo biodistribution in naïve tumor-free CD-1 Elite mice. As to conditions: female, mouse, iv, 74 kBq. As to the method: as §1
Series [4] can be described thus: Stability of radiopeptide in saline, radio-HPLC. The following applies: 24 h storage in saline, C18, fractions counted on gamma counter. Format: physicochemical. As for the experimental part: as §2, with “Following the incubation, serum protein was precipitated in ice-cold methanol (1:1.5 v/v) for 10 min, followed by centrifugation at 10,000× g for 10 min.” left out, “radio-HPLC. […]” for “radio-HPLC.”

Where [5] appears, read: total radioactivity, accumulation in kidneys.
Where [6] appears, read: total radioactivity, accumulation in pancreas.

One may read the tissue uptake as the share of the injected amount in each gram of the tissue. Take `C[C@@H](O)[C@@H]1NC(=O)[C@H](CCCCN)NC(=O)[C@@H](Cc2c[nH]c3ccccc23)NC(=O)[C@H](Cc2ccc(O)cc2)NC(=O)[C@@H](NC(=O)[C@@H](Cc2ccccc2)NC(=O)CCOCCOCCNC(=O)CN2CCN(CC(=O)O)CCN(CC(N)=O)CCN(CC(=O)O)CC2)CSSC[C@@H](C(=O)N[C@H](CO)[C@@H](C)O)NC1=O` [[^203Pb]Pb-PSC-PEG-T, metal not drawn]: the tissue uptake at 24 h in “in vivo” (activity in lungs) is 0.6 %ID/g. In addition, the figures for the tissue uptake dose at 3 h in the series “in vivo” (kidneys uptake (SPECT ROI)) and in the series “in vivo” (tumor uptake (SPECT ROI)) were 8.3 %ID and 1.8 %ID, respectively. The tissue uptake dose at 24 h in the series “in vivo” (kidneys uptake (SPECT ROI)) was found to be 0.8 %ID; in the series “in vivo” (tumor uptake (SPECT ROI)) it was 1.5 %ID.
Take `C[C@@H](O)[C@@H]1NC(=O)[C@H](CCCCN)NC(=O)[C@@H](Cc2c[nH]c3ccccc23)NC(=O)[C@H](Cc2ccc(O)cc2)NC(=O)[C@@H](NC(=O)[C@@H](Cc2ccccc2)NC(=O)CCOCCOCCNC(=O)CN2CCN(CC(=O)O)CCN(CC(N)=O)CCN(CC(=O)O)CC2)CSSC[C@@H](C(=O)N[C@H](CO)[C@@H](C)O)NC1=O` [[^203Pb]Pb-PSC-PEG-T] [metal not drawn]: in series [1] (72 h storage in saline with 5% EtOH and 1 mg mL^-1 sodium ascorbate, 7.4 MBq mL^-1, 1 and 5 µM precursor, n = 2), the “free ^203Pb” value is recorded as “less than 1%”. Also, in series [1] (72 h storage in saline with 5% EtOH and 1 mg mL^-1 sodium ascorbate, 7.4 MBq mL^-1, regardless of PSC-PEG-T precursor concentration (1 and 5 µM), n = 2), the “^203Pb remained in PSC-PEG-T” value was “More than 99%”.
As for `C[C@@H](O)[C@@H]1NC(=O)[C@H](CCCCN)NC(=O)[C@@H](Cc2c[nH]c3ccccc23)NC(=O)[C@H](Cc2ccc(O)cc2)NC(=O)[C@@H](NC(=O)[C@@H](Cc2ccccc2)NC(=O)CCOCCOCCNC(=O)CN2CCN(CC(=O)O)CCN(CC(N)=O)CCN(CC(=O)O)CC2)CSSC[C@@H](C(=O)N[C@H](CO)[C@@H](C)O)NC1=O` [[^212Bi]Bi-PSC-PEG-T, metal not drawn], the tissue uptake at 1 h in the series “in vivo” (accumulation in bones) stood at 2.5 %ID/g; in “in vivo” (accumulation in kidneys), 38.1 %ID/g.
For the molecule `C[C@@H](O)[C@@H]1NC(=O)[C@H](CCCCN)NC(=O)[C@@H](Cc2c[nH]c3ccccc23)NC(=O)[C@H](Cc2ccc(O)cc2)NC(=O)[C@@H](NC(=O)[C@@H](Cc2ccccc2)NC(=O)CCOCCOCCNC(=O)CN2CCN(CC(=O)O)CCN(CC(N)=O)CCN(CC(=O)O)CC2)CSSC[C@@H](C(=O)N[C@H](CO)[C@@H](C)O)NC1=O` [[^212Bi]Bi-PSC-PEG-T] [metal not drawn], the “accumulation in adrenal glands” value in series [2] is listed as 8.1 %ID/g. Besides, the accumulation in liver in series [2] came to 2.1 %ID/g. In series [2], this molecule yielded an accumulation in spleen of 1.4 %ID/g. For the same molecule, the results for the accumulation in kidneys in series [3] (1 h) and in series [3] (5 h) were 45.9 ± 3.7 %ID/g and 29.8 %ID/g, respectively. Also, the accumulation in pancreas in series [3] (1 h) is listed as 7.3 %ID/g; in series [3] (5 h) it was 3.5 %ID/g. The “activity remained in blood” value in series [3] (1 h) was “less than 0.2 %ID/g”. Also, in series [3] (24 h), the “residual activity in kidneys” value is given as 3.1 ± 1.4 %ID/g. Besides, in series [4], the “radiochemical purity (radiometal remained incorporated as radiopeptide)” value is more than 95%. For the same molecule, the “radiochemical purity of progeny” value is given as 91.8% in series [1] (1 µM PSC-PEG-T), 94.8% in series [1] (3 µM PSC-PEG-T) and 97.1% in series [1] (5 µM PSC-PEG-T). The radiochemical purity in series [1] (1 h incubation in saline (5% EtOH, 1 mg mL^-1 sodium ascorbate), 1 µM PSC-PEG-T precursor) is given as 94.1%; in series [1] (2 h incubation in saline (5% EtOH, 1 mg mL^-1 sodium ascorbate), 1 µM PSC-PEG-T precursor) it was 96.1%; in series [1] (3 h incubation in saline (5% EtOH, 1 mg mL^-1 sodium ascorbate), 1 µM PSC-PEG-T precursor), 92.4%; in series [1] (5 h incubation in saline (5% EtOH, 1 mg mL^-1 sodium ascorbate), 1 µM PSC-PEG-T precursor) it was 92.3%; in series [1] (5 h incubation in saline (5% EtOH, 1 mg mL^-1 sodium ascorbate), 5 µM PSC-PEG-T precursor), more than 98%.
As to `C[C@@H](O)[C@@H]1NC(=O)[C@H](CCCCN)NC(=O)[C@@H](Cc2c[nH]c3ccccc23)NC(=O)[C@H](Cc2ccc(O)cc2)NC(=O)[C@@H](NC(=O)[C@@H](Cc2ccccc2)NC(=O)CCOCCOCCNC(=O)CN2CCN(CC(=O)O)CCN(CC(N)=O)CCN(CC(=O)O)CC2)CSSC[C@@H](C(=O)N[C@H](CO)[C@@H](C)O)NC1=O` [[^212Pb]Pb-PSC-PEG-T, metal not drawn], the tissue uptake at 1 h in series [3] (setting [5]) is 47.1 ± 7.9 %ID/g; in series [3] (setting [6]) it was 5.2 %ID/g; in series [3] (total radioactivity, activity remained in blood) it was less than 0.2 %ID/g. The tissue uptake at 5 h in series [3] (setting [5]) stood at 26.6 %ID/g; in series [3] (setting [6]), 2 %ID/g. The tissue uptake at 24 h in series [3] (total radioactivity, residual activity in kidneys) is 2.7 ± 1.2 %ID/g.
